Here are results for 5 proteins from publication PMC4605311, “Structure of mitochondrial poly(A) RNA polymerase reveals the structural basis for dimerization, ATP selectivity and the SPAX4 disease phenotype” (Nucleic Acids Research, 2015).

Data set [1] deals with the molecule itself. The data set can be described thus: crystal structure; hanging drop, 0.2 M NaCl, 0.1 M Bis-Tris pH 5.5, 20–23% PEG 3350; apo crystals and crystals soaked with 10 mM MgCl2 and 10 mM nucleotide; two mtPAP molecules in the asymmetric unit.
Data set [2] concerns the molecule itself. Briefly: SEC; Superdex-200 elution profiles of WT and mutated mtPAP proteins. On the technique in general: In gel filtration, larger molecules generally elute earlier.

B1: chicken mitochondrial poly(A) RNA polymerase, mature wild type (residues 37–568) (enzyme, Gallus gallus, UniProt F1NBW0 37-568, looked up)
chain: AGGAEETDAEVSARKKTFTEVQTERLEQADRSVLIKCPSKLNEKKLLQYLSSHGKIDNYFFFENRGIHALIEFSEKSSVASLQAVTGIPKAAEHHVVPYKSRLFTFTLKNPGSQAAEERPVKISPQSHIPVNELIPKLCHADSISSQMYILLNEYQLTEENIKLRYLACSLVRDFARAYFPDSTVKPFGSSVNTFGKLGCDVDMFLDFHDIQKHATKMKKGPFEMEYQMKRLPSERLATQKILSIIGDCLDNFGPGYSSVQKILNARCPLVKFSHQPTGFQCDLSVSNSIAIRCSELLYIYGCLDPRVRALVFSLRCWARVHGLTNSVPGTWITNFSLTMMIMFFLQKRSPPIIPTLDQLKELADEKDKHVIGGYDCSFVSDLSKIKPTKNTETLDELLCDFFQYFGNFDFRKNSLNLRKGKEVNKPESSPLYIWNPFEQDLNISKNVNQPQLEKFVAMARESAWILQKEDKTQQMINKEPWGLAAVLIPFGKSNPNTMKSRTKGIGSETIKSLLDSLKLSDANNLQKAVGK
notes: Expression construct pNIC28-BsaI; also called mtPAP; WT mtPAP; source: E. coli KRX/pRARE2, purified (HisTrap, TEV cleavage, HiTrap Heparin)
For the protein B1, the “stoichiometry N” value in data set [1] was determined as 2.

B2: chicken mtPAP triple mutant K76E, K80–81E (enzyme, Gallus gallus, UniProt F1NBW0 37-568, looked up)
chain: AGGAEETDAEVSARKKTFTEVQTERLEQADRSVLIKCPSELNEEELLQYLSSHGKIDNYFFFENRGIHALIEFSEKSSVASLQAVTGIPKAAEHHVVPYKSRLFTFTLKNPGSQAAEERPVKISPQSHIPVNELIPKLCHADSISSQMYILLNEYQLTEENIKLRYLACSLVRDFARAYFPDSTVKPFGSSVNTFGKLGCDVDMFLDFHDIQKHATKMKKGPFEMEYQMKRLPSERLATQKILSIIGDCLDNFGPGYSSVQKILNARCPLVKFSHQPTGFQCDLSVSNSIAIRCSELLYIYGCLDPRVRALVFSLRCWARVHGLTNSVPGTWITNFSLTMMIMFFLQKRSPPIIPTLDQLKELADEKDKHVIGGYDCSFVSDLSKIKPTKNTETLDELLCDFFQYFGNFDFRKNSLNLRKGKEVNKPESSPLYIWNPFEQDLNISKNVNQPQLEKFVAMARESAWILQKEDKTQQMINKEPWGLAAVLIPFGKSNPNTMKSRTKGIGSETIKSLLDSLKLSDANNLQKAVGK
notes: mitochondrial poly(A) polymerase (mtPAP), Gallus gallus, residues 37-568, charge-reversal triple mutant; The methods list K80–81E and K76E apart; the results call it a triple mutant
Take B2: the binding result in data set [2] is “binds”.

B3: chicken mtPAP R272E mutant (enzyme, Gallus gallus, UniProt F1NBW0 37-568, looked up)
chain: AGGAEETDAEVSARKKTFTEVQTERLEQADRSVLIKCPSKLNEKKLLQYLSSHGKIDNYFFFENRGIHALIEFSEKSSVASLQAVTGIPKAAEHHVVPYKSRLFTFTLKNPGSQAAEERPVKISPQSHIPVNELIPKLCHADSISSQMYILLNEYQLTEENIKLRYLACSLVRDFARAYFPDSTVKPFGSSVNTFGKLGCDVDMFLDFHDIQKHATKMKKGPFEMEYQMKRLPSEELATQKILSIIGDCLDNFGPGYSSVQKILNARCPLVKFSHQPTGFQCDLSVSNSIAIRCSELLYIYGCLDPRVRALVFSLRCWARVHGLTNSVPGTWITNFSLTMMIMFFLQKRSPPIIPTLDQLKELADEKDKHVIGGYDCSFVSDLSKIKPTKNTETLDELLCDFFQYFGNFDFRKNSLNLRKGKEVNKPESSPLYIWNPFEQDLNISKNVNQPQLEKFVAMARESAWILQKEDKTQQMINKEPWGLAAVLIPFGKSNPNTMKSRTKGIGSETIKSLLDSLKLSDANNLQKAVGK
notes: mitochondrial poly(A) polymerase (mtPAP), Gallus gallus, residues 37-568, R272E
Consider B3, for which the binding result in data set [2] is “binds”.

B4: chicken mtPAP N472D mutant (residues 37–568) (enzyme, Gallus gallus, UniProt F1NBW0 37-568, looked up)
chain: AGGAEETDAEVSARKKTFTEVQTERLEQADRSVLIKCPSKLNEKKLLQYLSSHGKIDNYFFFENRGIHALIEFSEKSSVASLQAVTGIPKAAEHHVVPYKSRLFTFTLKNPGSQAAEERPVKISPQSHIPVNELIPKLCHADSISSQMYILLNEYQLTEENIKLRYLACSLVRDFARAYFPDSTVKPFGSSVNTFGKLGCDVDMFLDFHDIQKHATKMKKGPFEMEYQMKRLPSERLATQKILSIIGDCLDNFGPGYSSVQKILNARCPLVKFSHQPTGFQCDLSVSNSIAIRCSELLYIYGCLDPRVRALVFSLRCWARVHGLTNSVPGTWITNFSLTMMIMFFLQKRSPPIIPTLDQLKELADEKDKHVIGGYDCSFVSDLSKIKPTKNTETLDELLCDFFQYFGNFDFRKNSLNLRKGKEVNKPESSPLYIWDPFEQDLNISKNVNQPQLEKFVAMARESAWILQKEDKTQQMINKEPWGLAAVLIPFGKSNPNTMKSRTKGIGSETIKSLLDSLKLSDANNLQKAVGK
notes: mitochondrial poly(A) polymerase (mtPAP), Gallus gallus, residues 37-568, N472D (counterpart of human N478D); Purified by the same procedure as the wild type; also called N472D mtPAP; SPAX4 N472D mtPAP mutant; source: E. coli KRX/pRARE2, purified (HisTrap, TEV cleavage, HiTrap Heparin)
For the protein B4, in data set [1], the binding result is reported as “binds”.

B5: chicken mtPAP K112E mutant (enzyme, Gallus gallus, UniProt F1NBW0 37-568, looked up)
chain: AGGAEETDAEVSARKKTFTEVQTERLEQADRSVLIKCPSKLNEKKLLQYLSSHGKIDNYFFFENRGIHALIEFSEESSVASLQAVTGIPKAAEHHVVPYKSRLFTFTLKNPGSQAAEERPVKISPQSHIPVNELIPKLCHADSISSQMYILLNEYQLTEENIKLRYLACSLVRDFARAYFPDSTVKPFGSSVNTFGKLGCDVDMFLDFHDIQKHATKMKKGPFEMEYQMKRLPSERLATQKILSIIGDCLDNFGPGYSSVQKILNARCPLVKFSHQPTGFQCDLSVSNSIAIRCSELLYIYGCLDPRVRALVFSLRCWARVHGLTNSVPGTWITNFSLTMMIMFFLQKRSPPIIPTLDQLKELADEKDKHVIGGYDCSFVSDLSKIKPTKNTETLDELLCDFFQYFGNFDFRKNSLNLRKGKEVNKPESSPLYIWNPFEQDLNISKNVNQPQLEKFVAMARESAWILQKEDKTQQMINKEPWGLAAVLIPFGKSNPNTMKSRTKGIGSETIKSLLDSLKLSDANNLQKAVGK
notes: mitochondrial poly(A) polymerase (mtPAP), Gallus gallus, residues 37-568, K112E
On to B5, for which the binding result in data set [2] was “binds”.

The stoichiometry N is the number of molecules, sites or subunits per partner or assembly.
